The target in the test is NSF_(E326Q):GFP (dominant-negative variant of NSF, GFP-tagged) (Arabidopsis thaliana) (UniProt Q9M0Y8). The test can be described thus: co-IP.

The results in this text go back to article doi:10.1101/2022.04.29.490041.

Chain of UniProt Q9M0Y8 (Q9M0Y8 whole entry E326Q): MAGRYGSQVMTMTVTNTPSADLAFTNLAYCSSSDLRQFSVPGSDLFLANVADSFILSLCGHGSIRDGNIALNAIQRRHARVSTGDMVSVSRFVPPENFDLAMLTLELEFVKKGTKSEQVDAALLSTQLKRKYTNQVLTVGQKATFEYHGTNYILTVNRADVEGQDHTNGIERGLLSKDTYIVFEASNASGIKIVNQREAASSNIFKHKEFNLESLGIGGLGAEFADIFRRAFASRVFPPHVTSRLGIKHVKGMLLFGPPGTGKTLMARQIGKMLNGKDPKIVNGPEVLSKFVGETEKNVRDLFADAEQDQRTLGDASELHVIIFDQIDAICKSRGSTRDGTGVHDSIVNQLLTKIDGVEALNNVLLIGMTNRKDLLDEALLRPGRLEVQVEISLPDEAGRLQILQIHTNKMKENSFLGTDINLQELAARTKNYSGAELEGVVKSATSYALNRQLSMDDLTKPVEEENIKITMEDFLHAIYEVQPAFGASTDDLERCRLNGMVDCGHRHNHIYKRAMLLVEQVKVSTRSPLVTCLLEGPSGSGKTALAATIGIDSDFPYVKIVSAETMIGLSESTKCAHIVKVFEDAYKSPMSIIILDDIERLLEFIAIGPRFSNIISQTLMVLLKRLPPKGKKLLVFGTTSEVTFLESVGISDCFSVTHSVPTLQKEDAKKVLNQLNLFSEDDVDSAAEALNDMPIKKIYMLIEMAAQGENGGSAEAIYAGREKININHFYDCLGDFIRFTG

The substance “KNOLLE (cytokinesis-specific Qa-SNARE) (natural protein)” came in with a fold increase of co-precipitation relative to wild-type NSF of 38 fold.
